Measurements reported in article PMC12216052 (Nature Communications, 2025).

Molecular target: T1, Notch1(EGF1-36) (amino acids 20-1426) (human, UniProt P46531 20-1426, biotin, chemically at the N-terminus (EZ-Link Sulfo-NHS-Biotin))
T1 construct: NOTCH1, human, EGF1-36, amino acids 20-1426; also called NOTCH1 ECD; source: Tni insect cells (baculovirus), purified (nickel chromatography with 1 mM calcium, SEC), chemically biotinylated
Assay: SPR; ~300 RU biotinylated NOTCH1(EGF1-36) on a streptavidin chip; DLL4(N-5) or DLK1 ECD as analyte; HBS-P20-BSA with 1 mM CaCl2; reference: ZNRF3 ECD
Details: both partners purified

B1: Human DLL4 (N-EGF5, amino acids 27-400) (domain or fragment, UniProt Q9NR61 27-400, looked up)
chain: SGVFQLQLQEFINERGVLASGRPCEPGCRTFFRVCLKHFQAVVSPGPCTFGTVSTPVLGTNSFAVRDDSSGGGRNPLQLPFNFTWPGTFSLIIEAWHAPGDDLRPEALPPDALISKIAIQGSLAVGQNWLLDEQTSTLTRLRYSYRVICSDNYYGDNCSRLCKKRNDHFGHYVCQPDGNLSCLPGWTGEYCQQPICLSGCHEQNGYCSKPAECLCRPGWQGRLCNECIPHNGCRHGTCSTPWQCTCDEGWGGLFCDQDLNYCTHHSPCKNGATCSNSGQRSYTCTCRPGYTGVDCELELSECDSNPCRNGGSCKDQEDGYHCLCPPGYYGLHCEHSTLSCADSPCFNGGSCRERNQGANYACECPPNFTGSNCE
notes: Delta-like 4 (DLL4), human, N-EGF5, amino acids 27-400; also called DLL4(N-5); source: Tni insect cells (baculovirus), purified (nickel chromatography, SEC)
- binding result: binds
